PMC11098500
Several values for one entry are separate records, joined by “and”; a condition that tells them apart may be missing. Equal entries are not always repeated.

Tests used:
[1] = target: domestic dog ACE2 ectodomain (residues 1-614), Fc-tagged (domestic dog); assay: SPR
[2] = target: raccoon dog ACE2 ectodomain (residues 1-614), Fc-tagged (raccoon dog) (UniProt B4XEP4); assay: SPR

Substance	Kd [1]	Kd [2]
SARS-CoV-2 RBD (residues 319-529), His-tagged (from UniProt P0DTC2 319-529) (domain or fragment)	468 nM	–
SARS-CoV-2 RBD (prototypic strain, residues 319-529), His-tagged (from UniProt P0DTC2 319-529) (domain or fragment)	518 nM and 524 nM and 361 nM	297 nM and 449 nM and 450 nM
